Laboratory results reported in patent US20210032299A1.
Starred links: 1 amine or outer side, 2 acyl side, 3 side chain; linkers in the order of their positions; H or OH if unused. Non-standard residues stand in square brackets, D forms with d. Groups on a side chain read outwards from the residue. No end group written: not given here. *: point of attachment. C20 diacid = O=C(O)CCCCCCCCCCCCCCCCCCC(=O)*; αMePhe(2-F) = C[C@](N)(Cc1ccccc1F)C(=O)O; γGlu = O=C(O)[C@H](CCC(=O)[*:2])N[*:1]; 4Pal = N[C@@H](Cc1ccncc1)C(=O)O; αMeL = CC(C)C[C@](C)(N)C(=O)O; AEEA = NCCOCCOCC(=O)O; Aib = CC(C)(N)C(=O)O

Legend:
[1] = biological target: T1, human glucose-dependent insulinotropic polypeptide (GIP) receptor (human), P48546; assay: SPA, displacement of [125I]-GIP from hGIPR membranes, 0.1% bacitracin
T1 chain: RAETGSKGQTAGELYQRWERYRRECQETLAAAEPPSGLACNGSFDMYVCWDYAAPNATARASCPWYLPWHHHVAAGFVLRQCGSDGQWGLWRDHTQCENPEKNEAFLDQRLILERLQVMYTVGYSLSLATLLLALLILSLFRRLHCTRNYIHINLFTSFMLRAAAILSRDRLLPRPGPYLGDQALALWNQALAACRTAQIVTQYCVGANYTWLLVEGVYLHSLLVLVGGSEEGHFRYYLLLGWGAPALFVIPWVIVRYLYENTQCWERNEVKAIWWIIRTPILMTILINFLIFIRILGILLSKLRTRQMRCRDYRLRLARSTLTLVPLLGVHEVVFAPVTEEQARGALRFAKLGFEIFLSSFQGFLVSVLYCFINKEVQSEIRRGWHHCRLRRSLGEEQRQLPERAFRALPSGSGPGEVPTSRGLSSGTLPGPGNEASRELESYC

[2] = biological target: human glucagon receptor (human), P47871; assay: SPA, displacement of [125I]-Gcg from hGcgR membranes, 0.1% bacitracin
Chain of human glucagon receptor (human), P47871 (P47871 26-477): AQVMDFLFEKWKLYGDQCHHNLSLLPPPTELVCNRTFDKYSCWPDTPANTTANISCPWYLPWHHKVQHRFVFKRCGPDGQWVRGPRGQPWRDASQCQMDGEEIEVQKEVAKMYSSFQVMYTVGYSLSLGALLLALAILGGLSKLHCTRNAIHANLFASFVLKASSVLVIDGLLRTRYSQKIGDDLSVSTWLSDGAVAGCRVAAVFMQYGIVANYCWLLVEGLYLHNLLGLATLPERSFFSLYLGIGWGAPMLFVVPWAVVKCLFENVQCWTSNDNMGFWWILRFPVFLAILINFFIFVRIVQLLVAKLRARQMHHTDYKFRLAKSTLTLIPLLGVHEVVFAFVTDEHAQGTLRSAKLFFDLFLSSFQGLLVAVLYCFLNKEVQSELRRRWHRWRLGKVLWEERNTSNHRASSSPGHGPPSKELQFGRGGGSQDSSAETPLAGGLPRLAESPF

[3] = biological target: T2, human GLP-1 receptor (human), P43220; assay: SPA, displacement of [125I]-GLP-1 from hGLP-1R membranes, 0.1% bacitracin
T2 chain: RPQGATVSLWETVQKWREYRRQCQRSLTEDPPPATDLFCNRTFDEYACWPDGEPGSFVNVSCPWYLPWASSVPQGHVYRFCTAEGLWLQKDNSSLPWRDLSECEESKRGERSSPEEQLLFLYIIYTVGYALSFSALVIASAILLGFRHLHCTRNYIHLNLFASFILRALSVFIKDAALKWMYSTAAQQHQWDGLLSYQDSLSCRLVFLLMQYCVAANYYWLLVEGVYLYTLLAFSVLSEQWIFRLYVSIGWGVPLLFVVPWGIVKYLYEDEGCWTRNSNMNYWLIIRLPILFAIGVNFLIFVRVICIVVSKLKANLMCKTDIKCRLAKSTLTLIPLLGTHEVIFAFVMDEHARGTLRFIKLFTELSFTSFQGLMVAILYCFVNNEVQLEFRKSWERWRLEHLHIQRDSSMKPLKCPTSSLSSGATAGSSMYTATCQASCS

Binder	Ki [1]	Ki [2]	Ki [3]
Y[Aib]EGT[αMePhe(2-F)]ISDYSIALDKIHQ[Aib]EFVNYK([AEEA-AEEA-γGlu-C20 diacid])LAGGPSSGAPPPS-NH2 (N-terminus assumed; SMILES CC[C@H](C)[C@H](NC(=O)[C@H](CO)NC(=O)[C@H](Cc1ccc(O)cc1)NC(=O)[C@H](CC(=O)O)NC(=O)[C@H](CO)NC(=O)[C@@H](NC(=O)[C@](C)(Cc1ccccc1F)NC(=O)[C@@H](NC(=O)CNC(=O)[C@H](CCC(=O)O)NC(=O)C(C)(C)NC(=O)[C@@H](N)Cc1ccc(O)cc1)[C@@H](C)O)[C@@H](C)CC)C(=O)N[C@@H](C)C(=O)N[C@@H](CC(C)C)C(=O)N[C@@H](CC(=O)O)C(=O)N[C@@H](CCCCN)C(=O)N[C@H](C(=O)N[C@@H](Cc1c[nH]cn1)C(=O)N[C@@H](CCC(N)=O)C(=O)NC(C)(C)C(=O)N[C@@H](CCC(=O)O)C(=O)N[C@@H](Cc1ccccc1)C(=O)N[C@H](C(=O)N[C@@H](CC(N)=O)C(=O)N[C@@H](Cc1ccc(O)cc1)C(=O)N[C@@H](CCCCNC(=O)COCCOCCNC(=O)COCCOCCNC(=O)CC[C@H](NC(=O)CCCCCCCCCCCCCCCCCCC(=O)O)C(=O)O)C(=O)N[C@@H](CC(C)C)C(=O)N[C@@H](C)C(=O)NCC(=O)NCC(=O)N1CCC[C@H]1C(=O)N[C@@H](CO)C(=O)N[C@@H](CO)C(=O)NCC(=O)N[C@@H](C)C(=O)N1CCC[C@H]1C(=O)N1CCC[C@H]1C(=O)N1CCC[C@H]1C(=O)N[C@@H](CO)C(N)=O)C(C)C)[C@@H](C)CC) [Example 98]	0.0195 nM	38.4 nM	311 nM
H-Y[Aib]EGT[αMePhe(2-F)]ISDYSILLDKIHQ[Aib]DFVE[4Pal]K([AEEA-AEEA-γGlu-C20 diacid])LEGGPSSGAPPPS-NH2 (SMILES CC[C@H](C)[C@H](NC(=O)[C@H](CO)NC(=O)[C@H](Cc1ccc(O)cc1)NC(=O)[C@H](CC(=O)O)NC(=O)[C@H](CO)NC(=O)[C@@H](NC(=O)[C@](C)(Cc1ccccc1F)NC(=O)[C@@H](NC(=O)CNC(=O)[C@H](CCC(=O)O)NC(=O)C(C)(C)NC(=O)[C@@H](N)Cc1ccc(O)cc1)[C@@H](C)O)[C@@H](C)CC)C(=O)N[C@@H](CC(C)C)C(=O)N[C@@H](CC(C)C)C(=O)N[C@@H](CC(=O)O)C(=O)N[C@@H](CCCCN)C(=O)N[C@H](C(=O)N[C@@H](Cc1c[nH]cn1)C(=O)N[C@@H](CCC(N)=O)C(=O)NC(C)(C)C(=O)N[C@@H](CC(=O)O)C(=O)N[C@@H](Cc1ccccc1)C(=O)N[C@H](C(=O)N[C@@H](CCC(=O)O)C(=O)N[C@@H](Cc1ccncc1)C(=O)N[C@@H](CCCCNC(=O)COCCOCCNC(=O)COCCOCCNC(=O)CC[C@H](NC(=O)CCCCCCCCCCCCCCCCCCC(=O)O)C(=O)O)C(=O)N[C@@H](CC(C)C)C(=O)N[C@@H](CCC(=O)O)C(=O)NCC(=O)NCC(=O)N1CCC[C@H]1C(=O)N[C@@H](CO)C(=O)N[C@@H](CO)C(=O)NCC(=O)N[C@@H](C)C(=O)N1CCC[C@H]1C(=O)N1CCC[C@H]1C(=O)N1CCC[C@H]1C(=O)N[C@@H](CO)C(N)=O)C(C)C)[C@@H](C)CC) [Example 119]	0.129 nM	68.8 nM	723 nM
Y[Aib]EGTFISDYSI[αMeL]LDKIHQ[Aib]DFVEYK([AEEA-AEEA-γGlu-C20 diacid])LEAGPSSGAPPPS-NH2 (N-terminus assumed; SMILES CC[C@H](C)[C@H](NC(=O)[C@H](CCCCN)NC(=O)[C@H](CC(=O)O)NC(=O)[C@H](CC(C)C)NC(=O)[C@](C)(CC(C)C)NC(=O)[C@@H](NC(=O)[C@H](CO)NC(=O)[C@H](Cc1ccc(O)cc1)NC(=O)[C@H](CC(=O)O)NC(=O)[C@H](CO)NC(=O)[C@@H](NC(=O)[C@H](Cc1ccccc1)NC(=O)[C@@H](NC(=O)CNC(=O)[C@H](CCC(=O)O)NC(=O)C(C)(C)NC(=O)[C@@H](N)Cc1ccc(O)cc1)[C@@H](C)O)[C@@H](C)CC)[C@@H](C)CC)C(=O)N[C@@H](Cc1c[nH]cn1)C(=O)N[C@@H](CCC(N)=O)C(=O)NC(C)(C)C(=O)N[C@@H](CC(=O)O)C(=O)N[C@@H](Cc1ccccc1)C(=O)N[C@H](C(=O)N[C@@H](CCC(=O)O)C(=O)N[C@@H](Cc1ccc(O)cc1)C(=O)N[C@@H](CCCCNC(=O)COCCOCCNC(=O)COCCOCCNC(=O)CC[C@H](NC(=O)CCCCCCCCCCCCCCCCCCC(=O)O)C(=O)O)C(=O)N[C@@H](CC(C)C)C(=O)N[C@@H](CCC(=O)O)C(=O)N[C@@H](C)C(=O)NCC(=O)N1CCC[C@H]1C(=O)N[C@@H](CO)C(=O)N[C@@H](CO)C(=O)NCC(=O)N[C@@H](C)C(=O)N1CCC[C@H]1C(=O)N1CCC[C@H]1C(=O)N1CCC[C@H]1C(=O)N[C@@H](CO)C(N)=O)C(C)C) [Example 117]	0.0722 nM	685 nM	591 nM
